Source: publication PMC5901963 (Nature, 2017)

What was measured:
[1] = target: bacTMEM175 from Streptomyces collinus (Streptomyces collinus); assay: cross-linking
[2] = target: bacTMEM175 from Chryseobacterium sp (Chryseobacterium sp); assay: cross-linking
crystal structure = target: the molecule itself; assay: crystal structure

## bacTMEM175 from Streptomyces collinus (natural protein)
[1]
  stoichiometry N: 4

## bacTMEM175 from Chryseobacterium sp (natural protein)
[2]
  stoichiometry N: 4

B1: TMEM175 from Chamaesiphon minutus (CmTMEM175) (natural protein, UniProt K9UJK2 1-203, looked up)
chain: MVEAPEQSETGRIEAFSDGVFAIAITLLVLEIKVPQHKIVETVGLVSSLLSLWPSYLAFLTSFASILVMWVNHHRIFSLVARTDHAFFYWNGLLLMLVTFVPFPTALLAEYLIHPQARVAASVYAGIFLAIAIVFNRLWKHAATADRLLAQKADRHEVDAITKQYRFGPGLYLVAFALSFISVWLSVGVCFVLAIYFALRSNA
Crystal structure
  stoichiometry N: 4
